Source: publication PMC8431453

Biological target: Met receptor tyrosine kinase (human (endogenous in EHMES-1)) (UniProt P08581)
Sequence of UniProt P08581 (P08581 25-1390): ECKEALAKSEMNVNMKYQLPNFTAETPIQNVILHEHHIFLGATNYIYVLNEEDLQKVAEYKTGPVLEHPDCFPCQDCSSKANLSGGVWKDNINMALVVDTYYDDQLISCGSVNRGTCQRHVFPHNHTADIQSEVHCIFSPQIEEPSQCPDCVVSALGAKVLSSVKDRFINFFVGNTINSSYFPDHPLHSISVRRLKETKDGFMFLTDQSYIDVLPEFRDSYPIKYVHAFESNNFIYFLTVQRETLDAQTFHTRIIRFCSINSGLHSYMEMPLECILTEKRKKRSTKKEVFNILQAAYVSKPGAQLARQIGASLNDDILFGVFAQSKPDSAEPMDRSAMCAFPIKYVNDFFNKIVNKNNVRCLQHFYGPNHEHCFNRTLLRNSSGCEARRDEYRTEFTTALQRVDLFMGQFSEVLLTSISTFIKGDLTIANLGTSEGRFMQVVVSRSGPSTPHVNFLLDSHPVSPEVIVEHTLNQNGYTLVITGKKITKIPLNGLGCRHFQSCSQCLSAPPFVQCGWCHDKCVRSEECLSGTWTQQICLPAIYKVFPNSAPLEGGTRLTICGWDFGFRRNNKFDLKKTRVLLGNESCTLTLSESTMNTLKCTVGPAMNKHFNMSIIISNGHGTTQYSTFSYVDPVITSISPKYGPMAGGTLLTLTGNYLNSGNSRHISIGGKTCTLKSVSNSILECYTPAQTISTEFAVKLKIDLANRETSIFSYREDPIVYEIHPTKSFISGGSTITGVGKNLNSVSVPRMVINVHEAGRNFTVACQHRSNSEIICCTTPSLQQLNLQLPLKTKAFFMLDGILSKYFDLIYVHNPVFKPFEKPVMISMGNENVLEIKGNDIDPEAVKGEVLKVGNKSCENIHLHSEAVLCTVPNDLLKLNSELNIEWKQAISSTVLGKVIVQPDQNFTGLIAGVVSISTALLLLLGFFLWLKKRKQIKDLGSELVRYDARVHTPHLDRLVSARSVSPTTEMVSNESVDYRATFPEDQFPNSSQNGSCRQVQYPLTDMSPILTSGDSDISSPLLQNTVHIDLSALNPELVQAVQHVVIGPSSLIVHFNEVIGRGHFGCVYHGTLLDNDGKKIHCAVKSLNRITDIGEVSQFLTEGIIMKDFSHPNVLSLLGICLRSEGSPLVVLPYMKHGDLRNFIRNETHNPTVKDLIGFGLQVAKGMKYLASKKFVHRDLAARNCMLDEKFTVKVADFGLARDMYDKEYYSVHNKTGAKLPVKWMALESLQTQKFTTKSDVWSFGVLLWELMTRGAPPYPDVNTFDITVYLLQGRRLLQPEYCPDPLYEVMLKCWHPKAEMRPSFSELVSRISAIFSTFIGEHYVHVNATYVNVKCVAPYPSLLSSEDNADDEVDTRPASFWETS

Row | Met Y1234/1235 phosphorylation in EHMES-1 cells, cell-based ELISA, at 30 nM, compared with wild-type NK1 [%] | Met Y1234/1235 phosphorylation in EHMES-1 cells, cell-based ELISA, compared with 30 nM wild-type NK1 (fold of 30 nM wild-type NK1) | Substance
1 | 52.2 | – | K144A mutant NK1 (ligand)
2 | 8.3 | – | N127A mutant NK1 (ligand)
3 | 23.8 | – | V140A mutant NK1 (ligand)
4 | – | 2.5 | wild-type hepatocyte growth factor (two-chain HGF) (from UniProt P14210-3 32-489) (ligand)
